According to patent publication US20030022244A1:

Target: mutant p53 protein
Assay: method not stated

Kd: 100 nM
B1: ME1 single-chain antibody (scFv ME1) (scFv)
scFv: QVKLQQSGAELAKPGASVKMSCKTSGYTFTSYWMNWVKQRPGQGLEWIGYINPTTGYTKYNQKFKDKATLTADKSSSTAYMQLSSLTNVDSAVYYCTTGYSYFDYWGQGTTVTVSSGGGGSGGGGSGGGGSDIELTQSPAIMSASPGEKVTITCSASSSVNYMHWFQQKPGTSPKLWISSTSNLASGVPARFSGSGSGTSYSLTISRMEAEDAATYYCQQRSSYPYTFGGGTKLQIKRAAAGAPVPYPDPLEPRAA
